Key:
[1] = target: Y436T; assay: SPR
[2] = target: GLD52; assay: SPR

Kd [1]: 1.95 nM
Kd [2]: 2.44 nM
B1: CD52 peptide 741 (peptide)
peptide: GQNDTSQTSSPS
